Measurements from US20220041658A1 (PROTAGONIST THERAPEUTICS, published 2022).
Positions of bridges follow the written chain, without caps; N, C: chain ends. Non-standard residues stand in square brackets, D forms with d. Trp(7-Me) = Cc1cccc2c(C[C@H](N)C(=O)O)c[nH]c12; 2Nal = N[C@@H](Cc1ccc2ccccc2c1)C(=O)O; AEF = NCCOc1ccc(C[C@H](N)C(=O)O)cc1; Cit = NC(=O)NCCC[C@H](N)C(=O)O; Pen = CC(C)(S)[C@H](N)C(=O)O; αMeK = C[C@](N)(CCCCN)C(=O)O; βAla = NCCC(=O)O

T1: interleukin-23 receptor (IL-23R) (human, UniProt Q5VWK5 24-629)
T1 sequence (looked up): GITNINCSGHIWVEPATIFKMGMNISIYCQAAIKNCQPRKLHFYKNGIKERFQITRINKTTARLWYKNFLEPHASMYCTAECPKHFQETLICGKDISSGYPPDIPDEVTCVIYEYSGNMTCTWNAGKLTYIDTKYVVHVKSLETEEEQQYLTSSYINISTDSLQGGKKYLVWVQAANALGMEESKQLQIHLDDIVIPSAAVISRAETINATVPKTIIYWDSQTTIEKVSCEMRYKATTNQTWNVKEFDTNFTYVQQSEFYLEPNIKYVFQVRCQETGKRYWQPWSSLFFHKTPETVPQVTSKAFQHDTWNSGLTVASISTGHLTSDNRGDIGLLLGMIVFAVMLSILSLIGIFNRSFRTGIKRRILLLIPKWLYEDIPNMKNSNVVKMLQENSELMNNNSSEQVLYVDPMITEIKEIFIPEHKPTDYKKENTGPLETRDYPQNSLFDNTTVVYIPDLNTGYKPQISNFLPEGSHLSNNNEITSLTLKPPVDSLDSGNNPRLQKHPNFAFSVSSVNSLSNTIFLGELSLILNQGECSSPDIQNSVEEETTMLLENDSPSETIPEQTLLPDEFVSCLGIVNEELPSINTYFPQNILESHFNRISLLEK

B1: Peptide of SEQ ID NO: 263 (peptide)
peptide: Ac-[Pen]NT[Trp(7-Me)][Cit][Pen][AEF][2Nal][αMeK]K(Ac)N[dT]-NH2
modifications: disulfide 1-6
SMILES: CC(=O)NCCCC[C@H](NC(=O)[C@](C)(CCCCN)NC(=O)[C@H](Cc1ccc2ccccc2c1)NC(=O)[C@H](Cc1ccc(OCCN)cc1)NC(=O)[C@H]1NC(=O)[C@H](CCCNC(N)=O)NC(=O)[C@H](Cc2c[nH]c3c(C)cccc23)NC(=O)[C@H]([C@@H](C)O)NC(=O)[C@H](CC(N)=O)NC(=O)[C@@H](NC(C)=O)C(C)(C)SSC1(C)C)C(=O)N[C@@H](CC(N)=O)C(=O)N[C@@H](C(N)=O)[C@H](C)O
B2: Peptide of SEQ ID NO: 270 (peptide)
peptide: XNTXKXXXXKXX
modifications: Ac-[Pen]-N-T-[W(7-Me)]-[Lys(Ac)]-[Pen]-Phe[4-(2-aminoethoxy)]-[2-Nal]-[a-MeLys]-[Lys(Ac)]-[bA]-[bA]-NH2; Pen-Pen disulfide
B3: Peptide of SEQ ID NO: 291 (peptide)
peptide: Ac-[Pen]NT[Trp(7-Me)]K(Ac)[Pen][His_3Bom][2Nal][αMeK]K(Ac)N[dL]-NH2
modifications: disulfide 1-6 (inferred)
B4: Peptide of SEQ ID NO: 260 (peptide)
peptide: Ac-[Pen]NT[Trp(7-Me)][Cit][Pen][AEF][2Nal][αMeK]K(Ac)NS-NH2
modifications: disulfide 1-6
SMILES: CC(=O)NCCCC[C@H](NC(=O)[C@](C)(CCCCN)NC(=O)[C@H](Cc1ccc2ccccc2c1)NC(=O)[C@H](Cc1ccc(OCCN)cc1)NC(=O)[C@H]1NC(=O)[C@H](CCCNC(N)=O)NC(=O)[C@H](Cc2c[nH]c3c(C)cccc23)NC(=O)[C@H]([C@@H](C)O)NC(=O)[C@H](CC(N)=O)NC(=O)[C@@H](NC(C)=O)C(C)(C)SSC1(C)C)C(=O)N[C@@H](CC(N)=O)C(=O)N[C@@H](CO)C(N)=O
B5: Peptide of SEQ ID NO: 281 (peptide)
peptide: Ac-[Pen]NT[Trp(7-Me)][Cit][Pen][AEF][2Nal][αMeK][Cit][βAla][βAla]-NH2
modifications: disulfide 1-6
SMILES: CC(=O)N[C@@H]1C(=O)N[C@@H](CC(N)=O)C(=O)N[C@@H]([C@@H](C)O)C(=O)N[C@@H](Cc2c[nH]c3c(C)cccc23)C(=O)N[C@@H](CCCNC(N)=O)C(=O)N[C@H](C(=O)N[C@@H](Cc2ccc(OCCN)cc2)C(=O)N[C@@H](Cc2ccc3ccccc3c2)C(=O)N[C@@](C)(CCCCN)C(=O)N[C@@H](CCCNC(N)=O)C(=O)NCCC(=O)NCCC(N)=O)C(C)(C)SSC1(C)C
B6: Peptide of SEQ ID NO: 267 (peptide)
peptide: XNTXQXXXXKNX
modifications: Ac-[Pen]-NT-[W(7-Me)]-Q-[Pen]-Phe[4-(2-aminoethoxy)]-[2-Nal]-[a-MeLys]-[Lys(Ac)]-N-[bA]-NH2; Pen-Pen disulfide
B7: Peptide of SEQ ID NO: 275 (peptide)
peptide: XNTXQXXXXKNX
modifications: Ac-[Pen]-N-T-[W(7-Me)]-Q-[Pen]-Phe[4-(2-aminoethoxy)]-[2-Nal]-[Spiral_Pip]-[Lys(Ac)]-N-[bA]-NH2; Pen-Pen disulfide
B8: Peptide of SEQ ID NO: 277 (peptide)
peptide: XNTXQXXXXKNX
modifications: Ac-[Pen]-N-T-[W(7-Me)]-Q-[Pen]-Phe[4-(2-aminoethoxy)]-[2-Nal]-[Acbc]-[Lys(Ac)]-N-[bA]-NH2; Pen-Pen disulfide
B9: Peptide of SEQ ID NO: 279 (peptide)
peptide: XNTXQXXXXXXX
modifications: Ac-[Pen]-N-T-[W(7-Me)]-Q-[Pen]-Phe[4-(2-aminoethoxy)]-[2-Nal]-[a-MeLys]-[Cit]-[bA]-[bA]-NH2; Pen-Pen disulfide
B10: Peptide of SEQ ID NO: 292 (peptide)
peptide: Ac-[Pen]NT[Trp(7-Me)]K(Ac)[Pen][His_Bzl][2Nal][αMeK]K(Ac)N[dL]-NH2
modifications: disulfide 1-6 (inferred)
B11: Peptide of SEQ ID NO: 256 (peptide)
peptide: Ac-[Pen]NT[Trp(7-Me)][Cit][Pen][AEF][2Nal][αMeK]K(Ac)N[dR]-NH2
modifications: disulfide 1-6
B12: Peptide of SEQ ID NO: 273 (peptide)
peptide: XNTXKXXXXEXX
modifications: Ac-[Pen]-N-T-[W(7-Me)]-[Lys(Ac)]-[Pen]-Phe[4-(2-aminoethoxy)]-[2-Nal]-[a-MeLys]-E-[bA]-[bA]-NH2; Pen-Pen disulfide
B13: Peptide of SEQ ID NO: 288 (peptide)
peptide: XNTXKXXXXKNL
modifications: Ac-[Pen]-N-T-[W(7-OMe)]-[Lys(Ac)]-[Pen]-Phe[4-(2-aminoethoxy)]-[2-Nal]-[a-MeLys]-[Lys(Ac)]-N-[(D)Leu]-NH2; Pen-Pen disulfide
B14: Peptide of SEQ ID NO: 274 (peptide)
peptide: XNTXQXXXXKNX
modifications: Ac-[Pen]-N-T-[W(7-Me)]-Q-[Pen]-Phe[4-(2-aminoethoxy)]-[2-Nal]-[Achc]-[Lys(Ac)]-N-[bA]-NH2; Pen-Pen disulfide
B15: Peptide of SEQ ID NO: 269 (peptide)
peptide: XNTXQXXXXKLX
modifications: Ac-[Pen]-N-T-[W(7-Me)]-Q-[Pen]-Phe[4-(2-aminoethoxy)]-[2-Nal]-[a-MeLys]-[Lys(Ac)]-L-[bA]-NH2; Pen-Pen disulfide

The binders below were run against T1, interleukin-23 receptor (IL-23R) (assay: cell-based or functional assay).

pStat3 HTRF IC50 | Binder
0.603 nM | B1
4.43 nM | B2
> 1 µM | B3
0.699 nM | B4
17.7 nM | B5
0.506 nM | B6
2.17 nM | B7
0.639 nM | B8
5.97 nM | B9
128 nM | B10
0.754 nM | B11
2.69 nM | B12
1.48 nM | B13
0.484 nM | B14
10.1 nM | B15
